Experimental data from US20130236458A1 (AbbVie / Abbott, published 2013).
Residue numbers refer to the chain shown, from its start. One block for each binder: values may come before it.

Tests used:
Recombinant Human IL-13 [1] = target: T1, Recombinant Human IL-13 (human, UniProt P35225 35-146, limits assumed); assay: SPR (Biacore)
T1 construct: bought reagent
Summary of the method: (§1)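 Antibodies or DVD-Ig captured on anti-mouse IgG (Fcγ) CM5 surface; antigen injected at 10–200 nM in HBS-EP, pH 7.4, 25 °C, 25 µL/min. kon and koff from global 1:1 Langmuir fit; KD = koff/kon.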

Recombinant Human IL-17 [2] = target: T2, Recombinant Human IL-17 (human, UniProt Q16552 20-155, limits assumed); assay: SPR (Biacore)
T2 construct: bought reagent; also called IL-17A
T2 sequence (looked up): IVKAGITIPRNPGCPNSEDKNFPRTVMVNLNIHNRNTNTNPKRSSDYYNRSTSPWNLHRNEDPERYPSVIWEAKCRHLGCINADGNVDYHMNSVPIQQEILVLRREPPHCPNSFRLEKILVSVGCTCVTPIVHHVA
Summary of the method: as §1

Recombinant Human IL-13 [3] = target: T1, Recombinant Human IL-13; assay: cell-based or functional assay
Recombinant Human IL-17 [4] = target: T2, Recombinant Human IL-17; assay: cell-based or functional assay

T1 sequence (P35225 35-146 limits assumed): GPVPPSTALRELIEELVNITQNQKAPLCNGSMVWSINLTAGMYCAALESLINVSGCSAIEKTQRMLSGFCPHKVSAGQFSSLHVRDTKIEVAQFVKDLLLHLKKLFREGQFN

B2: DVD2187 (bispecific antibody)
VH: EVQLVQSGAEVKKPGSSVKVSCKASGYTFTDYEIHWVRQAPGQGLEWMGVNDPESGGTFYNQKFDGRVTLTADESTSTAYMELSSLRSEDTAVYYCTRYSKWDSFDGMDYWGQGTTVTVSSASTKGPEVQLVQSGAEVKKPGASVKVSCKASGYTFTSYWMHWVRQAPGQGLEWIGNINPKGGSNIYNEKFQGRVTMTRDTSISTAYMELSRLRSDDTAVYYCARLDYFGDSFDLWGQGTTVTVSS
VL: DIQMTQSPSSLSASVGDRVTITCRASSGIISYIDWFQQKPGKAPKRLIYATFDLASGVPSRFSGSGSGTDYTLTISSLQPEDFATYYCRQVGSYPETFGQGTKLEIKRTVAAPSVFIFPPDIQMTQSPSSLSASVGDRVTITCRASQGIRNYLNWYQQKPGKAPKLLIYYASNLEVGVPSRFSGSGSGTDYTLTISSLQPEDFATYYCQQDNRFPYTFGGGTKVEIKR
notes: DVD-Ig; also called DVD2187H; DVD2187L
Kd (Recombinant Human IL-13 [1]): 0.072 nM | koff (Recombinant Human IL-13 [1]): 2.1e-05 s⁻¹ | kon (Recombinant Human IL-13 [1]): 290000 M⁻¹ s⁻¹ | Kd (Recombinant Human IL-17 [2]): < 0.00038 nM | koff (Recombinant Human IL-17 [2]): < 1e-06 s⁻¹ | kon (Recombinant Human IL-17 [2]): 2.6e+06 M⁻¹ s⁻¹ | C-Terminal VD IL13 Neutralization Assay IC50 (Recombinant Human IL-13 [3]): 0.811 nM | N-Terminal VD IL17 Neutralization Assay IC50 (Recombinant Human IL-17 [4]): 0.0016 nM

B3: DVD2177 (bispecific antibody)
VH: EVQLVQSGAEVKKPGSSVKVSCKASGGSFGGYGIGWVRQAPGQGLEWMGGITPFFGFADYAQKFQGRVTITADESTTTAYMELSGLTSDDTAVYYCARDPNEFWNGYYSTHDFDSWGQGTTVTVSSASTKGPSVFPLAPEVQLVQSGAEVKKPGASVKVSCKASGYTFTTYGVSWVRQAPGQGLEWMGEIYPGNYNTYYNEKFRGRVTMTTDTSTSTAYMELRSLRSDDTAVYYCARWRTSYFSDYGYFDYWGQGTTVTVSS
VL: EIVLTQSPDFQSVTPKEKVTITCRASQDIGSELHWYQQKPDQPPKLLIKYASHSTSGVPSRFSGSGSGTDFTLTINGLEAEDAGTYYCHQTDSLPYTFGPGTKVDIKRTVAAPDVVMTQSPLSLPVTLGQPASISCRSSQSLVHSHGNTYLHWYQQRPGQSPRLLIYTVSNRFSGVPDRFSGSGSGTDFTLKISRVEAEDVGVYYCSQSTHVPYTFGGGTKVEIKR
notes: DVD-Ig; also called DVD2177H; DVD2177L
Kd (Recombinant Human IL-13 [1]): < 0.0091 nM | koff (Recombinant Human IL-13 [1]): < 1e-06 s⁻¹ | kon (Recombinant Human IL-13 [1]): 110000 M⁻¹ s⁻¹ | Kd (Recombinant Human IL-17 [2]): ≤ 0.0043 nM | koff (Recombinant Human IL-17 [2]): ≤ 1e-05 s⁻¹ | kon (Recombinant Human IL-17 [2]): 2.5e+06 M⁻¹ s⁻¹ | C-Terminal VD IL13 Neutralization Assay IC50 (Recombinant Human IL-13 [3]): 0.155 nM | N-Terminal VD IL17 Neutralization Assay IC50 (Recombinant Human IL-17 [4]): 0.0101 nM

B5: DVD2183 (bispecific antibody)
VH: EVQLVQSGAEVKKPGESVKISCKASGGSFRSYGISWVRQAPGQGLEWMGGITHFFGITDYAQKFQGRVTITADESTTTAYMELSGLTSDDTAVYYCAREPNDFWNGYYDTHDFDSWGQGTTVTVSSASTKGPSVFPLAPEVQLVQSGAEVKKPGASVKVSCKASGYTFTTYGVSWVRQAPGQGLEWMGEIYPGNYNTYYNEKFRGRVTMTTDTSTSTAYMELRSLRSDDTAVYYCARWRTSYFSDYGYFDYWGQGTTVTVSS
VL: B3 VL with D28N, P43S, T55I, G84A, T91S, S93T, Y96H, P100Q
notes: DVD-Ig; also called DVD2183H; DVD2183L
Kd (Recombinant Human IL-13 [1]): < 0.0042 nM | koff (Recombinant Human IL-13 [1]): < 1e-06 s⁻¹ | kon (Recombinant Human IL-13 [1]): 240000 M⁻¹ s⁻¹ | Kd (Recombinant Human IL-17 [2]): 0.015 nM | koff (Recombinant Human IL-17 [2]): 3.6e-05 s⁻¹ | kon (Recombinant Human IL-17 [2]): 2.3e+06 M⁻¹ s⁻¹ | C-Terminal VD IL13 Neutralization Assay IC50 (Recombinant Human IL-13 [3]): 0.086 nM | N-Terminal VD IL17 Neutralization Assay IC50 (Recombinant Human IL-17 [4]): 0.0125 nM

B6: DVD2174 (bispecific antibody)
VH: EVQLVQSGAEVKKPGASVKVSCKASGYTFTTYGVSWVRQAPGQGLEWMGEIYPGNYNTYYNEKFRGRVTMTTDTSTSTAYMELRSLRSDDTAVYYCARWRTSYFSDYGYFDYWGQGTTVTVSSASTKGPEVQLVQSGAEVKKPGSSVKVSCKASGGSFGGYGIGWVRQAPGQGLEWMGGITPFFGFADYAQKFQGRVTITADESTTTAYMELSGLTSDDTAVYYCARDPNEFWNGYYSTHDFDSWGQGTTVTVSS
VL: DVVMTQSPLSLPVTLGQPASISCRSSQSLVHSHGNTYLHWYQQRPGQSPRLLIYTVSNRFSGVPDRFSGSGSGTDFTLKISRVEAEDVGVYYCSQSTHVPYTFGGGTKVEIKRTVAAPSVFIFPPEIVLTQSPDFQSVTPKEKVTITCRASQDIGSELHWYQQKPDQPPKLLIKYASHSTSGVPSRFSGSGSGTDFTLTINGLEAEDAGTYYCHQTDSLPYTFGPGTKVDIKR
notes: DVD-Ig; also called DVD2174H; DVD2174L
Kd (Recombinant Human IL-13 [1]): 0.036 nM | koff (Recombinant Human IL-13 [1]): 2.8e-05 s⁻¹ | kon (Recombinant Human IL-13 [1]): 790000 M⁻¹ s⁻¹ | Kd (Recombinant Human IL-17 [2]): 0.098 nM | koff (Recombinant Human IL-17 [2]): 1.8e-05 s⁻¹ | kon (Recombinant Human IL-17 [2]): 180000 M⁻¹ s⁻¹ | N-Terminal VD IL13 Neutralization Assay IC50 (Recombinant Human IL-13 [3]): 0.085 nM | C-Terminal VD IL17 Neutralization Assay IC50 (Recombinant Human IL-17 [4]): 0.0126 nM

B7: DVD2175 (bispecific antibody)
VH: EVQLVQSGAEVKKPGSSVKVSCKASGGSFGGYGIGWVRQAPGQGLEWMGGITPFFGFADYAQKFQGRVTITADESTTTAYMELSGLTSDDTAVYYCARDPNEFWNGYYSTHDFDSWGQGTTVTVSSASTKGPEVQLVQSGAEVKKPGASVKVSCKASGYTFTTYGVSWVRQAPGQGLEWMGEIYPGNYNTYYNEKFRGRVTMTTDTSTSTAYMELRSLRSDDTAVYYCARWRTSYFSDYGYFDYWGQGTTVTVSS
VL: EIVLTQSPDFQSVTPKEKVTITCRASQDIGSELHWYQQKPDQPPKLLIKYASHSTSGVPSRFSGSGSGTDFTLTINGLEAEDAGTYYCHQTDSLPYTFGPGTKVDIKRTVAAPSVFIFPPDVVMTQSPLSLPVTLGQPASISCRSSQSLVHSHGNTYLHWYQQRPGQSPRLLIYTVSNRFSGVPDRFSGSGSGTDFTLKISRVEAEDVGVYYCSQSTHVPYTFGGGTKVEIKR
notes: DVD-Ig; also called DVD2175H; DVD2175L
Kd (Recombinant Human IL-13 [1]): < 0.019 nM | koff (Recombinant Human IL-13 [1]): < 1e-06 s⁻¹ | kon (Recombinant Human IL-13 [1]): 52000 M⁻¹ s⁻¹ | Kd (Recombinant Human IL-17 [2]): 0.0021 nM | koff (Recombinant Human IL-17 [2]): 5.4e-06 s⁻¹ | kon (Recombinant Human IL-17 [2]): 2.7e+06 M⁻¹ s⁻¹ | C-Terminal VD IL13 Neutralization Assay IC50 (Recombinant Human IL-13 [3]): 0.115 nM | N-Terminal VD IL17 Neutralization Assay IC50 (Recombinant Human IL-17 [4]): 0.0089 nM

Other lines, results leading:

Kd (Recombinant Human IL-13 [1]): < 0.0091 nM | koff (Recombinant Human IL-13 [1]): < 1e-06 s⁻¹ | kon (Recombinant Human IL-13 [1]): 110000 M⁻¹ s⁻¹ | Kd (Recombinant Human IL-17 [2]): 0.0089 nM | koff (Recombinant Human IL-17 [2]): 1.5e-05 s⁻¹ | kon (Recombinant Human IL-17 [2]): 1.7e+06 M⁻¹ s⁻¹ | C-Terminal VD IL13 Neutralization Assay IC50 (Recombinant Human IL-13 [3]): 1.25 nM | N-Terminal VD IL17 Neutralization Assay IC50 (Recombinant Human IL-17 [4]): 0.0013 nM
B1: DVD2185 (bispecific antibody)
VH: B2 VH
VL: DIQMTQSPSSLSASVGDRVTITCRASSGIISYIDWFQQKPGKAPKRLIYATFDLASGVPSRFSGSGSGTDYTLTISSLQPEDFATYYCRQVGSYPETFGQGTKLEIKRTVAAPDIQMTQSPSSLSASVGDRVTITCRASQGIRNYLNWYQQKPGKAPKLLIYYASNLEVGVPSRFSGSGSGTDYTLTISSLQPEDFATYYCQQDNRFPYTFGGGTKVEIKR
notes: DVD-Ig; also called DVD2185H; DVD2185L

Kd (Recombinant Human IL-13 [1]): ≤ 0.0036 nM | koff (Recombinant Human IL-13 [1]): ≤ 1e-06 s⁻¹ | kon (Recombinant Human IL-13 [1]): 280000 M⁻¹ s⁻¹ | Kd (Recombinant Human IL-17 [2]): 0.039 nM | koff (Recombinant Human IL-17 [2]): 6.4e-05 s⁻¹ | kon (Recombinant Human IL-17 [2]): 1.7e+06 M⁻¹ s⁻¹ | C-Terminal VD IL13 Neutralization Assay IC50 (Recombinant Human IL-13 [3]): 0.916 nM | N-Terminal VD IL17 Neutralization Assay IC50 (Recombinant Human IL-17 [4]): 0.0097 nM
B4: DVD2179 (bispecific antibody)
VH: EVQLVQSGAEVKKPGESVKISCKASGGSFRSYGISWVRQAPGQGLEWMGGITHFFGITDYAQKFQGRVTITADESTTTAYMELSGLTSDDTAVYYCAREPNDFWNGYYDTHDFDSWGQGTTVTVSSASTKGPEVQLVQSGAEVKKPGASVKVSCKASGYTFTTYGVSWVRQAPGQGLEWMGEIYPGNYNTYYNEKFRGRVTMTTDTSTSTAYMELRSLRSDDTAVYYCARWRTSYFSDYGYFDYWGQGTTVTVSS
VL: B3 VL with D28N, P43S, T55I, G84A, T91S, S93T, Y96H, P100Q
notes: DVD-Ig; also called DVD2179H; DVD2179L

Kd (Recombinant Human IL-13 [1]): < 0.012 nM | koff (Recombinant Human IL-13 [1]): < 1e-06 s⁻¹ | kon (Recombinant Human IL-13 [1]): 82000 M⁻¹ s⁻¹ | Kd (Recombinant Human IL-17 [2]): 0.016 nM | koff (Recombinant Human IL-17 [2]): 4.2e-05 s⁻¹ | kon (Recombinant Human IL-17 [2]): 2.6e+06 M⁻¹ s⁻¹ | C-Terminal VD IL13 Neutralization Assay IC50 (Recombinant Human IL-13 [3]): 0.04 nM | N-Terminal VD IL17 Neutralization Assay IC50 (Recombinant Human IL-17 [4]): 0.0097 nM
B8: DVD2181 (bispecific antibody)
VH: B4 VH
VL: B7 VL with D28N, P43S, T55I, G84A, T91S, S93T, Y96H, P100Q
notes: DVD-Ig; also called DVD2181H; DVD2181L
